Measured values published in patent US20060026702A1, “Phosphoinositide 3-kinase mediated inhibition of GPCRs” (DUKE UNIVERSITY, priority 2002, published 2006).

Target: endogenous βARK1 of HEK 293 cells (UniProt P25098)
Assay: cell-based or functional assay

endogenous βARK1 of HEK 293 cells, sequence (P25098 whole entry): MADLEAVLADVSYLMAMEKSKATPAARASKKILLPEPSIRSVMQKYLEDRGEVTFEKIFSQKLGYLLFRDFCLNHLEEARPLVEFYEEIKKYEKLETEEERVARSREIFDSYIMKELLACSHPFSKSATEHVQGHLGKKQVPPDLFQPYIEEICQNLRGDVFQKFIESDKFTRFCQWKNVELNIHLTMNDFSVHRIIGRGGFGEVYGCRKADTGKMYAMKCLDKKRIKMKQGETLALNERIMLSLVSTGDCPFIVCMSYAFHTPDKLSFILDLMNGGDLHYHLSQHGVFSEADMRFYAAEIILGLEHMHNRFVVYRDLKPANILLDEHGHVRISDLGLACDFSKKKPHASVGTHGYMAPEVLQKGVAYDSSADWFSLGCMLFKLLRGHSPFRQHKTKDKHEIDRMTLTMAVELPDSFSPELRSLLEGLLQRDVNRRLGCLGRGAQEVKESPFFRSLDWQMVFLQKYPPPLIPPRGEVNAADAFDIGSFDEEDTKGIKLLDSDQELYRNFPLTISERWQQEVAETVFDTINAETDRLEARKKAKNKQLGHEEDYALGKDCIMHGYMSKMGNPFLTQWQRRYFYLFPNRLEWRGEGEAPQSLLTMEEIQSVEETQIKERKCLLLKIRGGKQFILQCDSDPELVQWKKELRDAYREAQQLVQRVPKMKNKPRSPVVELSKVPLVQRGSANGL

- rate of agonist-dependent β2AR sequestration (125I-Cyanopindolol binding) with HEAT protein overexpressed: > 60%
Substance: endogenous PI3K of HEK 293 cells (enzyme)
